Assay [1] addresses histone H4 (in the nucleosome) (UniProt P62799 2-103). The experiment in a line: cryo-EM structure; R857Q of ALC1 (30 μM) mixed with 167NCP (6 μM), ADP-BeFx, GraFix; single-binding map 2.8 Å; a class with two copies of ALC1 on the nucleosome 3.3 Å. To be noted: both partners purified.
Assay [2] concerns the target T1, human ALC1 (residues 1-880) (human, UniProt Q86WJ1).
T1 construct: ALC1 (CHD1L), human, residues 1-880 cloned from cDNA; the crystallised construct holds the motor domain, the linker region and the macro domain; also called CHD1L; WT; source: E. coli Rosetta (DE3), purified (Ni-NTA, Source-15S, Superdex-200)
The assay is described as follows: crystal structure; ALC1-scFv complex (mixed 1:1.1, purified on Superdex 200), crystallised in the presence of ADP-Mg; 3.5 Å. As to conditions: both partners purified.

Here are results for 2 molecules from article PMC8249414, “Structural basis of ALC1/CHD1L autoinhibition and the mechanism of activation by the nucleosome” (Nature Communications, 2021).

B1: ALC1 R857Q mutant (enzyme)
chain: MERAGATSRGGQAPGFLLRLHTEGRAEAARVQEQDLRQWGLTGIHLRSYQLEGVNWLAQRFHCQNGCILGDEMGLGKTCQTIALFIYLAGRLNDEGPFLILCPLSVLSNWKEEMQRFAPGLSCVTYAGDKEERACLQQDLKQESRFHVLLTTYEICLKDASFLKSFPWSVLVVDEAHRLKNQSSLLHKTLSEFSVVFSLLLTGTPIQNSLQELYSLLSFVEPDLFSKEEVGDFIQRYQDIEKESESASELHKLLQPFLLRRVKAEVATELPKKTEVVIYHGMSALQKKYYKAILMKDLDAFENETAKKVKLQNILSQLRKCVDHPYLFDGVEPEPFEVGDHLTEASGKLHLLDKLLAFLYSGGHRVLLFSQMTQMLDILQDYMDYRGYSYERVDGSVRGEERHLAIKNFGQQPIFVFLLSTRAGGVGMNLTAADTVIFVDSDFNPQNDLQAAARAHRIGQNKSVKVIRLIGRDTVEEIVYRKAASKLQLTNMIIEGGHFTLGAQKPAADADLQLSEILKFGLDKLLASEGSTMDEIDLESILGETKDGQWVSDALPAAEGGSRDQEEGKNHMYLFEGKDYSKEPSKEDRKSFEQLVNLQKTLLEKASQEGRSLRNKGSVLIPGLVEGSTKRKRVLSPEELEDRQKKRQEAAAKRRRLIEEKKRQKEEAEHKKKMAWWESNNYQSFCLPSEESEPEDLENGEESSAELDYQDPDATSLKYVSGDVTHPQAGAEDALIVHCVDDSGHWGRGGLFTALEKRSAEPRKIYELAGKMKDLSLGGVLLFPVDDKESRNKGQDLLALIVAQHRDRSNVLSGIKMAALEEGLKKIFLAAKKKKASVHLPRIGHATKGFNWYGTEQLIRKHLAARGIPTYIYYFPRSKS
notes: ALC1 (CHD1L), human, residues 1-880 with R857Q; the mutant was made by mutagenesis; also called R857Q of ALC1; source: E. coli Rosetta (DE3), purified (Ni-NTA, Source-15S, Superdex-200)
Regarding B1, the binding result in assay [1] is “binds”.

B2: single-chain antibody (scFv) against ALC1 used for crystallization (scFv, V domains shown)
VH: QVQLQQSGPGLVRPSQTLSLTCAISGDSVSDNDAAWNWVRQSPSRGLEWLGRTYYRSKWSNEYAVFVQSRITINPDTSKNQFSLHLNSVTPEDTAVYYCARATRPTGNGLDIWGQGTMVTVSS
VL: SYVLTQPPSVSVAPGQTARITCGGNNIGSKSVHWYQQKPGQAPVLVVYDDSDRPSGIPERFSGSNSGNTAALTISRVEAGDEADYYCQVWDSSSDHVVFGGGTKLTVL
notes: human scFv from a non-immunized yeast-display library; One of seven clones; also called the antibody; source: HEK293F, transfected, secreted, purified (Ni-NTA, Superdex 75)
Take B2: the binding result in assay [2] is given as “binds”.
